# Biological target: the molecule itself
# Assay: crystal structure
protein,measurement,value
"alanine:glyoxylate aminotransferase 1, minor allele (AGT-Mi), purified recombinant (enzyme, human) MASHKLLVTPLKALLKPLSIPNQLLLGPGPSNLPPRIMAAGGLQMIGSMSKDMYQIMDEIKEGIQYVFQTRNPLTLVISGSGHCALEAALVNVLEPGDSFLVGANGIWGQRAVDIGERIGARVHPMTKDPGGHYTLQEVEEGLAQHKPVLLFLTHGESSTGVLQPLDGFGELCHRYKCLLLVDSVASLGGTPLYMDRQGIDILYSGSQKALNAPPGTSLISFSDKAKKKMYSRKTKPFSFYLDIKWLANFWGCDDQPRMYHHTIPVISLYSLRESLALIAEQGLENSWRQHREAAAYLHGRLQALGLQLFVKDPALRLPTVTTVAVPAGYDWRDIVSYVMDHFDIEIMGGLGPSTGKVLRIGLLGCNATRENVDRVTEALRAALQHCPKKKL",binding result,binds
